Laboratory results reported in patent US20210163555.

B1: His6-E6AP (protein)
chain: MEKLHQCYWKSGEPQSDDIEASRMKRAAAKHLIERYYHQLTEGCGNEACTNEFCASCPTFLRMDNNAAAIKALELYKINAKLCDPHPSKKGASSAYLENSKGAPNNSCSEIKMNKKGARIDFKDVTYLTEEKVYEILELCREREDYSPLIRVIGRVFSSAEALVQSFRKVKQHTKEELKSLQAKDEDKDEDEKEKAACSAAAMEEDSEASSSRIGDSSQGDNNLQKLGPDDVSVDIDAIRRVYTRLLSNEKIETAFLNALVYLSPNVECDLTYHNVYSRDPNYLNLFIIVMENRNLHSPEYLEMALPLFCKAMSKLPLAAQGKLIRLWSKYNADQIRRMMETFQQLITYKVISNEFNSRNLVNDDDAIVAASKCLKMVYYANVVGGEVDTNHNEEDDEEPIPESSELTLQELLGEERRNKKGPRVDPLETELGVKTLDCRKPLIPFEEFINEPLNEVLEMDKDYTFFKVETENKFSFMTCPFILNAVTKNLGLYYDNRIRMYSERRITVLYSLVQGQQLNPYLRLKVRRDHIIDDALVRLEMIAMENPADLKKQLYVEFEGEQGVDEGGVSKEFFQLVVEEIFNPDIGMFTYDESTKLFWFNPSSFETEGQFTLIGIVLGLAIYNNCILDVHFPMVVYRKLMGKKGTFRDLGDSHPVLYQSLKDLLEYEGNVEDDMMITFQISQTDLFGNPMMYDLKENGDKIPITNENRKEFVNLYSDYILNKSVEKQFKAFRRGFHMVTNESPLKYLFRPEEIELLICGSRNLDFQALEETTEYDGGYTRDSVLIREFWEIVHSFTDEQKRLFLQFTTGTDRAPVGGLGKLKMIIAKNGPDTERLPTSHTCFNVLLLPEYSSKEKLKERLLKAITYAKGFGML

Assays:
[1] = molecular target: Recombinant human p18 (His-p18)

Row | Molecule | levels of ubiquitinated p18 after Ube3a siRNA KD (His-ubiquitin pull-down assay) (Flag-p18) | in vitro ubiquitination of p18 (Western blot) [1]
1 | endogenous Ube3a of COS-1 cells | 100.0±1.8 vs. 66.8±3.7 | –
2 | B1 | – | p18 ubiquitination was only observed in the presence of Ube3a, ubiquitin, E1, E2, and ATP
